We go through eight proteins from patent US20100015650.

The data set has as its target T1, BRB1 tyrosine kinase substrate peptide.
T1 chain: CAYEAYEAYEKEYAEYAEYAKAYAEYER

B1: DDR1 (protein)
chain: RRLLSKAERRVLEEELTVHLSVPGDTILINNRPGPREPPPYQEPRPRGNPPHSAPCVPNGSALLLSNPAYRLLLATYARPPRGPGPPTPAWAKPTNTQAYSGDYMEPEKPGAPLLPPPPQNSVPHYAEADIVTLQGVTGGNTYAVPALPPGAVGDGPPRVDFPRSRLRFKEKLGEGQFGEVHLCEVDSPQDLVSLDFPLNVRKGHPLLVAVKILRPDATKNARNDFLKEVKIMSRLKDPNIIRLLGVCVQDDPLCMITDYMENGDLNQFLSAHQLEDKAAEGAPGDGQAAQGPTISYPMLLHVAAQIASGMRYLATLNFVHRDLATRNCLVGENFTIKIADFGMSRNLYAGDYYRVQGRAVLPIRWMAWECILMGKFTTASDVWAFGVTLWEVLMLCRAQPFGQLTDEQVIENAGEFFRDQGRQVYLSRPPACPQGLYELMLRCWSRESEQRPPFSQLHRFLAEDALNTV
Take B1: the Signal to Noise ratio with BRB1 Peptide (TR-FRET kinase assay; kinase 0.5 nM) is 1.

B2: DDR2 (protein)
chain: RQFWQKMLEKASRRMLDDEMTVSLSLPSDSSMFNNNRSSSPSEQGSNSTYDRIFPLRPDYQEPSRLIRKLPEFAPGEEESGCSGVVKPVQPSGPEGVPHYAEADIVNLQGVTGGNTYSVPAVTMDLLSGKDVAVEEFPRKLLTFKEKLGEGQFGEVHLCEVEGMEKFKDKDFALDVSANQPVLVAVKMLRADANKNARNDFLKEIKIMSRLKDPNIIHLLAVCITDDPLCMITEYMENGDLNQFLSRHEPPNSSSSDVRTVSYTNLKFMATQIASGMKYLSSLNFVHRDLATRNCLVGKNYTIKIADFGMSRNLYSGDYYRIQGRAVLPIRWMSWESILLGKFTTASDVWAFGVTLWETFTFCQEQPYSQLSDEQVIENTGEFFRDQGRQTYLPQPAICPDSVYKLMLSCWRRDTKNRPSFQEIHLLLLQQGDE
For B2, the Signal to Noise ratio with BRB1 Peptide (TR-FRET kinase assay; kinase 0.5 nM) was 1.

B3: TNK1 (protein)
chain: MLPEAGSLWLLKLLRDIQLAQFYWPILEELNVTRPEHFDFVKPEDLDGIGMGRPAQRRLSEALKRLRSGPKSKNWVYKILGGFAPEHKEPTLPSDSPRHLPEPEGGLKCLIPEGAVCRGELLGSGCFGVVHRGLWTLPSGKSVPVAVKSLRVGPEGPMGTELGDFLREVSVMMNLEHPHVLRLHGLVLGQPLQMVMELAPLGSLHARLTAPAPTPPLLVALLCLFLRQLAGAMAYLGARGLVHRDLATRNLLLASPRTIKVADFGLVRPLGGARGRYVMGGPRPIPYAWCAPESLRHGAFSSASDVWMFGVTLWEMFSGGEEPWAGVPPYLILQRLEDRARLPRPPLCSRALYSLALRCWAPHPADRPSFSHLEGLLQEAGPSEACCVRDVTEPGALRMETGDPITVIEGSSSFHSPDSTIWKGQNGRTFKVGSFPASAVTLADAGGLPATRPVHRGTPARGDQHPGSIDGDRKKANLWDAPPARGQRRNMPLERMKGISRSLESVLSLGPRPTGGGSSPPEIRQARAVPQGPPGLPPRPPLSSSSPQPSQPSRERLPWPKRKPPHNHPMGMPGARKAAALSGGLLSDPELQRKIMEVELSVHGVTHQECQTALGATGGDVVSAIRNLKVDQLFHLSSRSRADCWRILEHYQWDLSAASRYVLARP
Consider B3, for which the Signal to Noise Ratio with BRB1 Peptide (TR-FRET kinase assay; kinase 1 nM) is 6.8.

B4: TXK (protein)
chain: MILSSYNTIQSVFCCCCCCSVQKRQMRTQISLSTDEELPEKYTQRRRPWLSQLSNKKQSNTGRVQPSKRKPLPPLPPSEVAEEKIQVKALYDFLPREPCNLALRRAEEYLILEKYNPHWWKARDRLGNEGLIPSNYVTENKITNLEIYEWYHRNITRNQAEHLLRQESKEGAFIVRDSRHLGSYTISVFMGARRSTEAAIKHYQIKKNDSGQWYVAERHAFQSIPELIWYHQHNAAGLMTRLRYPVGLMGSCLPATAGFSYEKWEIDPSELAFIKEIGSGQFGVVHLGEWRSHIQVAIKAINEGSMSEEDFIEEAKVMMKLSHSKLVQLYGVCIQRKPLYIVTEFMENGCLLNYLRENKGKLRKEMLLSVCQDICEGMEYLERNGYIHRDLAARNCLVSSTCIVKISDFGMTRYVLDDEYVSSFGAKFPIKWSPPEVFLFNKYSSKSDVWSFGVLMWEVFTEGKMPFENKSNLQVVEAISEGFRLYRPHLAPMSIYEVMYSCWHEKPEGRPTFAELLRAVTEIAETW
Take B4: the Signal to Noise Ratio with BRB1 Peptide (TR-FRET kinase assay; kinase 3 nM) was found to be 5.9.

B5: ZAP70 (protein)
chain: MPDPAAHLPFFYGSISRAEAEEHLKLAGMADGLFLLRQCLRSLGGYVLSLVHDVRFHHFPIERQLNGTYAIAGGKAHCGPAELCEFYSRDPDGLPCNLRKPCNRPSGLEPQPGVFDCLRDAMVRDYVRQTWKLEGEALEQAIISQAPQVEKLIATTAHERMPWYHSSLTREEAERKLYSGAQTDGKFLLRPRKEQGTYALSLIYGKTVYHYLISQDKAGKYCIPEGTKFDTLWQLVEYLKLKADGLIYCLKEACPNSSASNASGAAAPTLPAHPSTLTHPQRRIDTLNSDGYTPEPARITSPDKPRPMPMDTSVYESPYSDPEELKDKKLFLKRDNLLIADIELGCGNFGSVRQGVYRMRKKQIDVAIKVLKQGTEKADTEEMMREAQIMHQLDNPYIVRLIGVCQAEALMLVMEMAGGGPLHKFLVGKREEIPVSNVAELLHQVSMGMKYLEEKNFVHRDLAARNVLLVNRHYAKISDFGLSKALGADDSYYTARSAGKWPLKWYAPECINFRKFSSRSDVWSYGVTMWEALSYGQKPYKKMKGPEVMAFIEQGKRMECPPECPPELYALMSDCWIYKWEDRPDFLTVEQRMRACYYSLASKVEGPPGSTQKAEAACA
On to B5, for which the Signal to Noise ratio with BRB1 Peptide (TR-FRET kinase assay; kinase 4 nM) came out at 7.6.

B6: AXL (protein)
chain: HRRKKETRYGEVFEPTVERGELVVRYRVRKSYSRRTTEATLNSLGISEELKEKLRDVMVDRHKVALGKTLGEGEFGAVMEGQLNQDDSILKVAVKTMKIAICTRSELEDFLSEAVCMKEFDHPNVMRLIGVCFQGSERESFPAPVVILPFMKHGDLHSFLLYSRLGDQPVYLPTQMLVKFMADIASGMEYLSTKRFIHRDLAARNCMLNENMSVCVADFGLSKKIYNGDYYRQGRIAKMPVKWIAIESLADRVYTSKSDVWSFGVTMWEIATRGQTPYPGVENSEIYDYLRQGNRLKQPADCLDGLYALMSRCWELNPQDRPSFTELREDLENTLKALPPAQEPDEILYVNMDEGGGYPEPPGAAGGADPPTQPDPKDSCSCLTAAEVHPAGRYVLCPSTTPSPAQPADRGSPAAPGQEDGA
In the case of B6, the Signal to Noise ratio with BRB1 Peptide (TR-FRET kinase assay; kinase 4 nM) turned out to be 1.8.

B7: ALK (protein)
chain: VYRRKHQELQAMQMELQSPEYKLSKLRTSTIMTDYNPNYCFAGKTSSISDLKEVPRKNITLIRGLGHGAFGEVYEGQVSGMPNDPSPLQVAVKTLPEVCSEQDELDFLMEALIISKFNHQNIVRCIGVSLQSLPRFILLELMAGGDLKSFLRETRPRPSQPSSLAMLDLLHVARDIACGCQYLEENHFIHRDIAARNCLLTCPGPGRVAKIGDFGMARDIYRASYYRKGGCAMLPVKWMPPEAFMEGIFTSKTDTWSFGVLLWEIFSLGYMPYPSKSNQEVLEFVTSGGRMDPPKNCPGPVYRIMTQCWQHQPEDRPNFAIILERIEYCTQDPDVINTALPIEYGPLVEEEEKVPVRPKDPEGVPPLLVSQQAKREEERSPAAPPPLPTTSSGKAAKKPTAAEISVRVPRGPAVEGGHVNMAFSQSNPPSELHKVHGSRNKPTSLWNPTYGSWFTEKPTKKNNPIAKKEPHDRGNLGLEGSCTVPPNVATGRLPGASLLLEPSSLTANMKEVPLFRLRHFPCGNVNYGYQQQGLPLEAATAPGAGHYEDTILKSKNSMNQPGP
With B7, the Signal to Noise ratio with BRB1 Peptide (TR-FRET kinase assay; kinase 4 nM) amounted to 8.8.

B8: TYK2 (protein)
chain: PHNLADVLTVNPDSPASDPTVFHKRYLKKIRDLGEGHFGKVSLYCYDPTNDGTGEMVAVKALKADCGPQHRSGWKQEIDILRTLYHEHIIKYKGCCEDQGEKSLQLVMEYVPLGSLRDYLPRHSIGLAQLLLFAQQICEGMAYLHAQHYIHRDLAARNVLLDNDRLVKIGDFGLAKAVPEGHEYYRVREDGDSPVFWYAPECLKEYKFYYASDVWSFGVTLYELLTHCDSSQSPPTKFLELIGIAQGQMTVLRLTELLERGERLPRPDKCPCEVYHLMKNCWETEASFRPTFENLIPILKTVHEKYQGQAPSVFSVC
As for B8, the Signal to Noise ratio with BRB1 Peptide (TR-FRET kinase assay; kinase 4 nM) is 7.3.
